Measurements as given in patent US20210340196A1 (UNIVERSIDAD DE ZARAGOZA, published 2021).

Target: T1, carcinoembryonic antigen (CEA), purified antigen (UniProt P06731 35-685)
T1 construct: Purified CEA coated on ELISA wells; also called CEA antigen
T1 sequence (looked up): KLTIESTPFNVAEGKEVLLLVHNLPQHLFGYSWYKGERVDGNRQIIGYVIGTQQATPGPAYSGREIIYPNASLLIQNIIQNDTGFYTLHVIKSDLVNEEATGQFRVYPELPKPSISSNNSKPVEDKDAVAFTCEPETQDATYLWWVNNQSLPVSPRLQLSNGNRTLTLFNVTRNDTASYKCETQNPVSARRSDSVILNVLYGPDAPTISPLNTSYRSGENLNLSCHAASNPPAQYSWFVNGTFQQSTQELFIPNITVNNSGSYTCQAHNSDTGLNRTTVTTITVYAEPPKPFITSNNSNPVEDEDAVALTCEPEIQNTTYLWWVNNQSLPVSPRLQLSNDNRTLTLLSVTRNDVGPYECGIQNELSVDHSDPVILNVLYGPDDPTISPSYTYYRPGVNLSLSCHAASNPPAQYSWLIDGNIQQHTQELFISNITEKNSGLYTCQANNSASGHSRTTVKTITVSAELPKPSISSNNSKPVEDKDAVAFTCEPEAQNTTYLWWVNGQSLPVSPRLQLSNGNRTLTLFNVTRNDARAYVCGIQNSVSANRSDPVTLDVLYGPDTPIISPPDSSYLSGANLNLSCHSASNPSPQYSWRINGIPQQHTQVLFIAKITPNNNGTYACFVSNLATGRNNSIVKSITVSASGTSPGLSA
Assay: ELISA, 200 ng CEA coated per well, 500 ng scFv MFE23 as positive control, anti-His tag antibody + HRP anti-mouse IgG, OPD read at 492 nm
Protocol: FIG. 7. ELISA performed with 200 ng of CEA per well (left overnight at 4° C.), PBS (negative control), 500 ng of recombinant scFv MFE23 (positive control), and the P. pastoris supernatant transformed with pPICZαC-Chimera were then added after inducing expression with methanol. To develop the binding of scFvs to the CEA antigen, an anti-histidine tag antibody and a peroxidase-conjugated goat anti-mouse IgG secondary antibody were used. The peroxidase substrate was OPD, producing a yellow-orange product that can be detected at 492 nm.
An ELISA was performed using 200 ng of CEA per well, which was incubated overnight at 4° C., PBS (negative control), 500 ng of the recombinant scFv MFE23 (positive control), and the P. pastoris supernatant transformed with pPICZαC-Chimera after inducing expression with methanol were then added. To develop the binding of scFvs to the CEA antigen, an anti-histidine tag antibody and a peroxidase-conjugated goat anti-mouse IgG secondary antibody were used. The peroxidase substrate was OPD, producing a yellow-orange product that can be detected at 492 nm.

B1: recombinant scFv MFE23 (scFv)
scFv: QVKLQQSGAELVRSGTSVKLSCTASGFNIKDSYMHWLRQGPEQGLEWIGWIDPENGDTEYAPKFQGKATFTTDTSSNTAYLQLSSLTSEDTAVYYCNEGTPTGPYYFDYWGQGTTVTVSSGGGGSGGGGSGGGGSENVLTQSPAIMSASPGEKVTITCSASSSVSYMHWFQQKPGTSPKLWIYSTSNLASGVPARFSGSGSGTSYSLTISRMEAEDAATYYCQQRSSYPLTFGAGTKLELKR
notes: Positive control in the ELISA, 500 ng; also called anti-CEA scFv MFE23
B1: binds.
